{
  "source": "patent US20170101472A1",
  "about": "(Regeneron, published 2017)",
  "binders": {"B1": {"name": "H4sH15462P (antibody, V domains shown)", "VH": "QVQLVQSGAEVKKPGASVKVSCKASGYTFTNYYIHWVRQAPGQGLDWMGIINPGGGNTNYAQKFLGRVTMTRDTSTTTVYMELSSLRSEDTAIYYCARENWNSYFDNWGQGTLVTVSS", "VL": "not shown", "notes": "H4sH = human IgG4 Fc with 2 or more amino acid changes as disclosed in US20140243504"}, "B2": {"name": "H4H15462P (antibody, human IgG4, V domains shown)", "VH": "B1 VH", "VL": "not shown", "notes": "H4H = human IgG4 Fc with S108P hinge mutation"}, "B3": {"name": "H4H15483P (antibody, human IgG4, V domains shown)", "VH": "QVQLQQWGAGLLPPSETLSLICAVYGGSFSGYYWSWIRQPPGKGLEWIGEINHRGSTNYNPSLKSRATISVDTSKNQFSLKLSSVTAADTAVYYCSRGEDYYDSSGYSYYFDYWGQGTLVTVSS", "VL": "EIVLTQSPATLSLSPGERATLSCRASQSVSSYLAWYQQKPGQAPRLLIYDASNRATGIPARFSGSGSGTDFTLTISSLEPEDFAVYYCQQRSNWPLTFGGGTKVEIK", "notes": "as for B2"}, "B4": {"name": "H4sH15479P (antibody, V domains shown)", "VH": "QVQLQQWGAGLLNPSETLSLTCAVYGGAFSDYYWNWIRQPPGKGLEWIGEINHRGSTNYNPSLKSRVTISVDTSKNQFSLRMSSVTAADAAVYYCARGEDYDIWNGYYQEKWGQGTLVTVSS", "VL": "B3 VL with V29I, S31T, N53K, A84V, Q89H"}, "B5": {"name": "H4H17826P2 (antibody, human IgG4, V domains shown)", "VH": "EVQLVESGGGLVQPGGSLRLSCAASGFTFSSYEMNWVRQAPGKGLEWVSYISSSGNTKDYAGSVKGRVTISRDNAKNLLYLQMNSLRAEDTAVYHCARDGGHYDILTGSMSYYYYALDVWGQGTTVTVSS", "VL": "not shown", "notes": "as for B2"}, "B6": {"name": "H4H17828P2 (antibody, human IgG4, V domains shown)", "VH": "EVQLVESGGGLVQPGGSLRLSCAASGFTFKTYAMSWVRQAPGRGLEWVSGISGSGSTSYYADSVKGRFTISRDNYKKTLSLQMNSLRAEDTAVYYCALDIMATVGGLFNNWGQGTLVTVSS", "VL": "not shown", "notes": "as for B2"}, "B7": {"name": "H4H17819P (antibody, human IgG4, V domains shown)", "VH": "EVQLVESGGGLVQPGGSLRLSCVASGFTFSLYAMTWVRQVPGKGLEWVSTISGSGGGTYYTDSVKGRFTISRDNSKNTLYLQMNSLRADDTAVFYCTKESTTGTYSYFYGMDVWGQGTTVTVSS", "VL": "DIQMTQSPSSLSASVGDRVTITCRASQTISSYLNWYQQKPGKAPKLLIYAASSLQSGVPSRFSGSGSGTDFTLTLSGLQPEDFATYYCQQSYSTPLTFGGGTKVEIK", "notes": "as for B2"}, "B8": {"name": "H4H17823P (antibody, human IgG4, V domains shown)", "VH": "EVQLLESGGGLVQPGGSLRLSCAASGFTFRSYAMSWVRQAPGKGLEWVSVISGGGGRTYYTDSVKGRFTISRDNSKSMLYLQMNSLRAEDTAIYYCAKERVTGIDHYYYGVDVWGQGTTVTVSS", "VL": "B7 VL with T28S, A51T, G66A, T74A, L75I, G77S, S93T", "notes": "as for B2"}},
  "note": "Residue numbers refer to the chain shown, from its start. Names may count otherwise.",
  "data": [
    {"target": "T1, human LAG3 expressed on HEK293 cells (human, UniProt P18627 23-525)", "T1 construct": "also called hLAG3; HEK293/hLAG3", "T1 sequence": "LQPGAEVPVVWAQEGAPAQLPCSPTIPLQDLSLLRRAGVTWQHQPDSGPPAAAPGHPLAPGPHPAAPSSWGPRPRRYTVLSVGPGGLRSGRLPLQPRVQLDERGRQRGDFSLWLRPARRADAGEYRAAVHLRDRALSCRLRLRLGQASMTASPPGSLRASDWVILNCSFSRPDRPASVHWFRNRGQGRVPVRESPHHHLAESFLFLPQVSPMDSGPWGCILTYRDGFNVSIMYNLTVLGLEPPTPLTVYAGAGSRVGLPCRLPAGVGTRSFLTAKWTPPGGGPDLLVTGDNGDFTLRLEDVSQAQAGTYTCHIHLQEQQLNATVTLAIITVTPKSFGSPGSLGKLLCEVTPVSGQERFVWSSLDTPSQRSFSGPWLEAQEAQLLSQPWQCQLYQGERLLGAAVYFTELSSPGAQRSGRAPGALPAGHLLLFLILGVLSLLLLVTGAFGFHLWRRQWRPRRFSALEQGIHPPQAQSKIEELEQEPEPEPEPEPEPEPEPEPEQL", "test": "flow cytometry, HEK293/hLAG3 cells", "procedure": "The serially diluted antibodies were added to the cell suspension and incubated for 15-30 minutes on ice. The cells were centrifuged and pellets were washed with staining buffer to remove unbound antibodies. […] The cells were centrifuged and pellets were washed with staining buffer to remove unbound secondary F(ab′)2 and fixed overnight with a 1:1 dilution of Cytofix (BD Biosciences, #554655) and staining buffer. Following day, fixed cells were centrifuged and pellets were washed with staining buffer, resuspended and filtered. Fluorescence measurements were acquired on HyperCyt® cytometer and analyzed in ForeCyt™ (IntelliCyt; Albuquerque, N. Mex.) to determine the mean fluorescence intensities (MFI). The EC₅₀ values were calculated from a four-parameter logistic equation over an 11-point response curve using GraphPad Prism. EC₅₀ was defined as the concentration of antibody at which 50% of maximal binding signal is detected. The MFI ratio for each antibody was calculated by dividing the MFI at 100 nM by MFI at 0 nM of antibody concentration.", "units": {"EC50": "nM"}, "values": [
      {"binder": "B1", "EC50": 0.665, "Ratio of MFI (100 nM/0 nM)": 182},
      {"binder": "B2", "EC50": 0.3, "Ratio of MFI (100 nM/0 nM)": 62.6},
      {"binder": "B3", "EC50": 2.31, "Ratio of MFI (100 nM/0 nM)": 206},
      {"binder": "B4", "EC50": 0.903, "Ratio of MFI (100 nM/0 nM)": 199},
      {"binder": "B5", "EC50": 3.86, "Ratio of MFI (100 nM/0 nM)": 414},
      {"binder": "B6", "EC50": 2.65, "Ratio of MFI (100 nM/0 nM)": 355},
      {"binder": "B7", "EC50": 2.79, "Ratio of MFI (100 nM/0 nM)": 436},
      {"binder": "B8", "EC50": 1.25, "Ratio of MFI (100 nM/0 nM)": 305}
    ]},
    {"target": "T2, recombinant human LAG3 expressed with a C-terminal myc-myc-hexahistidine tag (human, UniProt P18627 29-450)", "T2 construct": "also called hLAG3-mmh; hLAG3.mmh", "test": "SPR, mAb captured, 37 C", "procedure": "(§1) The BiaCore sensor surface was derivatized with either a polyclonal rabbit anti-mouse antibody (GE, # BR-1008-38) or with a monoclonal mouse anti-human Fc antibody (GE, # BR-1008-39) to capture approximately 50-85 RUs of anti-LAG3 monoclonal antibodies, expressed with either a mouse Fc or a human Fc, respectively. […] The binding of the LAG3 reagents to captured monoclonal antibodies was monitored for 4 minutes while their dissociation from the antibodies was monitored for 8 minutes in HBST running buffer (0.01 M HEPES pH 7.4, 0.15 M NaCl, 3 mM EDTA, 0.05% v/v Surfactant P20). Experiments were performed at 25° C. and 37° C. Kinetic association (kₐ) and dissociation (kd) rate constants were determined by processing and fitting the data to a 1:1 binding model using Scrubber 2.0c curve fitting software. Binding dissociation equilibrium constants (KD) and dissociative half-lives (t_{1/2}) were then calculated from the kinetic rate constants as: KD (M)=kd/kₐ and t_{1/2} (min)=[ln2/(60*kd)].", "units": {"Kd": "nM", "koff": "s⁻¹", "kon": "M⁻¹ s⁻¹", "t1/2": "min"}, "values": [
      {"binder": "B1", "Kd": 7.66, "koff": 0.00772, "kon": "1.01e+06", "t1/2": 1.5},
      {"binder": "B2", "Kd": 5.8, "koff": 0.00626, "kon": "1.08e+06", "t1/2": 1.8},
      {"binder": "B3", "Kd": 1.43, "koff": 0.00111, "kon": 774000, "t1/2": 10.4},
      {"binder": "B4", "Kd": 0.0341, "koff": "4.24e-05", "kon": "1.24e+06", "t1/2": 272},
      {"binder": "B5", "Kd": 1.99, "koff": 0.00214, "kon": "1.07e+06", "t1/2": 5.4},
      {"binder": "B6", "Kd": 1.89, "koff": 0.00207, "kon": "1.1e+06", "t1/2": 5.6},
      {"binder": "B7", "Kd": 0.552, "koff": 0.000876, "kon": "1.59e+06", "t1/2": 13.2},
      {"binder": "B8", "Kd": 0.524, "koff": 0.000924, "kon": "1.76e+06", "t1/2": 12.5}
    ]},
    {"target": "T3, recombinant human LAG3 expressed with a C-terminal mouse IgG2a mFc tag (human)", "T3 construct": "Called dimeric; also called hLAG3-mFc; hLAG3 dimer", "T3 chain": "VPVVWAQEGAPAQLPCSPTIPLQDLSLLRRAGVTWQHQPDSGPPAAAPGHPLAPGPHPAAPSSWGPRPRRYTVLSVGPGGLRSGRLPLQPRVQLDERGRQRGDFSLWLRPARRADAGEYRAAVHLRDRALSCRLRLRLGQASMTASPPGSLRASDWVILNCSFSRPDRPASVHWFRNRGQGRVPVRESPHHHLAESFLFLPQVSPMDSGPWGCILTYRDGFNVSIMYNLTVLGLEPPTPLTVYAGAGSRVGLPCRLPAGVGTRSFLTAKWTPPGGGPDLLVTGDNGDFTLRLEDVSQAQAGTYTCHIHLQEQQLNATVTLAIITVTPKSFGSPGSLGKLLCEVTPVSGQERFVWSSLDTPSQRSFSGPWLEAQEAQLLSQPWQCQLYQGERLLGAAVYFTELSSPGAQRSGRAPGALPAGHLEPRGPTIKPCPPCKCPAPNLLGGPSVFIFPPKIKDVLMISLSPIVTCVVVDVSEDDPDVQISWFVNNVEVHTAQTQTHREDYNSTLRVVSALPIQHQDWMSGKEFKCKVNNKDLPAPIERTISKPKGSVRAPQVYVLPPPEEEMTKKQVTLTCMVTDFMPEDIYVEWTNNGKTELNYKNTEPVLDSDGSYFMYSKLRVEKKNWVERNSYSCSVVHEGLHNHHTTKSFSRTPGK", "test": "SPR, mAb captured, 37 C", "procedure": "as §1", "units": {"Kd": "nM", "koff": "s⁻¹", "kon": "M⁻¹ s⁻¹", "t1/2": "min"}, "values": [
      {"binder": "B1", "Kd": 0.876, "koff": 0.00157, "kon": "1.8e+06", "t1/2": 7.3},
      {"binder": "B2", "Kd": 0.415, "koff": 0.000895, "kon": "2.16e+06", "t1/2": 12.9},
      {"binder": "B3", "Kd": 0.215, "koff": 0.000298, "kon": "1.38e+06", "t1/2": 38.8},
      {"binder": "B4", "Kd": 0.00342, "koff": "1e-05", "kon": "2.92e+06", "t1/2": "≥ 1160"},
      {"binder": "B5", "Kd": 0.277, "koff": 0.000547, "kon": "1.98e+06", "t1/2": 21.1},
      {"binder": "B6", "Kd": 0.415, "koff": 0.000718, "kon": "1.73e+06", "t1/2": 16.1},
      {"binder": "B7", "Kd": 0.317, "koff": 0.000527, "kon": "1.66e+06", "t1/2": 21.9},
      {"binder": "B8", "Kd": 0.437, "koff": 0.000585, "kon": "1.34e+06", "t1/2": 19.7}
    ]},
    {"target": "T1, human LAG3 expressed on HEK293 cells", "test": "cell adherence assay, blocks A20 (mouse MHCII) cells on HEK293-hLAG3", "procedure": "Cells were plated into sterile Nunclon™ Delta 96-Well MicroWell™ Black Optical Bottom Plates (Thermo Scientific). The wells from the perimeter of the plate were not included in the assay design to avoid edge effects.\nOn the day of treatment, all antibodies were serially (1:3) diluted in RPMI media (without FBS or supplements added). The 9-point dilution ranged between 45 pM to 300 nM, with the last dilution point containing no mAb. […] While the plated HEK293-LAG3 cells were incubating with the test or control antibodies, non-adherent B-cells (RAJI or A20) were labeled with Calcein AM using the following procedure. RAJI and A20 suspension cells were harvested and centrifuged at 1,200 rpm for 5 minutes. Cell pellets were resuspended in 1×PBS and counted. Cells were washed with RPMI, and resuspended in RPMI at a concentration of 10⁶ cells per 1 ml. Cells were labeled by adding 5 μL of Calcein AM per 1 ml of cell suspension and incubated for 30 min at 37° C., at 5% CO₂. […] Subsequently, 10 μL of BD Pharmingen Fc Block (0.5 mg/mL) was added per 1 ml of the Calcein AM labeled cells, which were incubated at RT for 10 minutes. The Calcein AM-stained, Fc-blocked RAJI or A20 cells were resuspended in RPMI to a final concentration of 3×10⁶ cells per 1 ml and subsequently used in the adherence assay.\nThe labeled suspension cells were incubated with the HEK293 monolayer for 1 hour at 37° C., at 5% CO₂.", "units": {"IC50": "nM"}, "values": [
      {"binder": "B1", "IC50": 3.6},
      {"binder": "B2", "IC50": 7.1},
      {"binder": "B3", "IC50": 16},
      {"binder": "B4", "IC50": 6.3},
      {"binder": "B5", "IC50": 10},
      {"binder": "B6", "IC50": 16},
      {"binder": "B7", "IC50": 16},
      {"binder": "B8", "IC50": 9.4}
    ]}
  ]
}
